Measurements taken from PMC3438722, “DNA Binding in High Salt: Analysing the Salt Dependence of Replication Protein A3 from the Halophile Haloferax volcanii” (Archaea, 2012).

T1: HvRPA3 CTD-1 (Haloferax volcanii DS2 (wild-type), UniProt D4GZS1 164-311)
T1 sequence: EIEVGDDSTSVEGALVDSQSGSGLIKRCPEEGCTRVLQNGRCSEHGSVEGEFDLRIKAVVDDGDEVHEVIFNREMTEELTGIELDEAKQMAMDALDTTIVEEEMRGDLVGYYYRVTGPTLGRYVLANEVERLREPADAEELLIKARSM

T2: HvRPA3 CTD-2 (Haloferax volcanii DS2 (wild-type), UniProt D4GZS1 164-311)
T2 sequence: T1 sequence

T3: HvRPA3 full length (Haloferax volcanii DS2 (wild-type), UniProt D4GZS1 1-311)
T3 sequence: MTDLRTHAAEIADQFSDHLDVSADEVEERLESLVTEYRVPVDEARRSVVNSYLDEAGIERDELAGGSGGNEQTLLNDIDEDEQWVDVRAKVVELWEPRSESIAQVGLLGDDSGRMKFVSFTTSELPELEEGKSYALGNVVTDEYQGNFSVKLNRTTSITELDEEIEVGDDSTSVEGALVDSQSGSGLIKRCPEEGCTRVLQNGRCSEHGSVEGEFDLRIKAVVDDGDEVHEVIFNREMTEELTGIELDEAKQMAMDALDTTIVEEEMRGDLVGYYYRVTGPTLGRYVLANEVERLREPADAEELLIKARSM

T4: HvRPA3-NTD (OB-fold) (Haloferax volcanii DS2 (wild-type), UniProt D4GZS1 1-163)
T4 sequence: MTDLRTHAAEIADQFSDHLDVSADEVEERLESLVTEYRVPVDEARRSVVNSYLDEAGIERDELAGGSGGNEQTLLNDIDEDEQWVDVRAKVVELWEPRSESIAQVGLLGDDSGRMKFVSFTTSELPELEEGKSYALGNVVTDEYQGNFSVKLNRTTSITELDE

B1: HvRPA3 N-terminal domain (residues 1-163) (domain or fragment, Haloferax volcanii, UniProt D4GZS1 1-163, looked up)
chain: T4 sequence
notes: Replication protein A3 (RPA3) of Haloferax volcanii, N-terminal domain residues 1-163, holds the OB-fold; Tagged construct has a predicted MW of 18.9 x 10^3; also called NTD; HvRPA3-NTD; source: E. coli B834 (DE3), purified (ammonium sulphate fractionation, Talon resin, Superdex 200); not shown: 6xHis, N-terminal, kept
B2: Replication protein A3 from Haloferax volcanii, full length (natural protein, UniProt D4GZS1 1-311, looked up)
chain: T3 sequence
notes: Replication protein A3 (RPA3) of Haloferax volcanii, amplified from genomic DNA of wild-type DS2; full length, residues 1-311 (the CTD construct ends at 311); Oligomeric state depends on the salt concentration; Tagged protein has a predicted MW of 35.4 x 10^3; also called HvRPA3; RPA3; source: E. coli B834 (DE3), purified (ammonium sulphate fractionation, Talon resin, Superdex 200); not shown: …
B3: HvRPA3 C-terminal domain (residues 164-311), second size exclusion peak (CTD-2) (domain or fragment, Haloferax volcanii, UniProt D4GZS1 164-311, looked up)
chain: T1 sequence
notes: Replication protein A3 (RPA3) of Haloferax volcanii, C-terminal domain residues 164-311, holds the zinc finger motif; Same construct as m3; the peak of lower apparent mass in the last purification step; Holds zinc (0.53 mol/mol); also called HvRPA3-CTD-2; source: E. coli B834 (DE3), purified (ammonium sulphate fractionation, Talon resin, Superdex 200; second of two peaks); not shown: 6xHis, …
B4: HvRPA3 C-terminal domain (residues 164-311), first size exclusion peak (CTD-1) (domain or fragment, Haloferax volcanii, UniProt D4GZS1 164-311, looked up)
chain: T1 sequence
notes: Replication protein A3 (RPA3) of Haloferax volcanii, C-terminal domain residues 164-311, holds the zinc finger motif; Same construct as m4; the peak of higher apparent mass in the last purification step, concentrated apart; also called HvRPA3-CTD-1; source: E. coli B834 (DE3), purified (ammonium sulphate fractionation, Talon resin, Superdex 200; first of two peaks); not shown: 6xHis, N-terminal, …

Legend:
HvRPA3 CTD-1 [1] = molecular target: T1, HvRPA3 CTD-1; test: analytical SEC; any KCl condition (0.2, 1, 3 M); data not shown; FA: 50 mM HEPES pH 7.0, 10% glycerol, 0.03% BSA, 20 nM Cy5-oligo, 0.2, 1 or 3 M KCl, room temperature 10 min; SEC: 50 mM HEPES pH 7.0, 0.2, 1 or 3 M KCl; EMSA:; settings: protein: recombinant; tags: N-terminal 6xHis; chain copies: 4; single strand
HvRPA3 CTD-2 [2] = molecular target: T2, HvRPA3 CTD-2; test: as above; settings: protein: recombinant; tags: N-terminal 6xHis; single strand
[3] = molecular target: the molecule itself; test: SEC; analytical, 10/300 Superdex 200, 50 mM HEPES pH 7.0, 1.0 M KCl, with equimolar (monomer equivalent) 18mer ssDNA
[4] = molecular target: the molecule itself; test: SEC; analytical, 10/300 Superdex 200, 50 mM HEPES pH 7.0, 0.2 M KCl; 250 ug protein incubated one hour in the buffer; calibrated with gel filtration standards
[5] = molecular target: the molecule itself; test: SEC; analytical, 10/300 Superdex 200, 50 mM HEPES pH 7.0, 1.0 M KCl; 250 ug protein incubated one hour in the buffer; calibrated with gel filtration standards
HvRPA3 full length [6] = molecular target: T3, HvRPA3 full length; test: fluorescence anisotropy; 1 M KCl; Hill 0.9 ± 0.1; monomer equivalents; FA: 50 mM HEPES pH 7.0, 10% glycerol, 0.03% BSA, 20 nM Cy5-oligo, 0.2, 1 or 3 M KCl, room temperature 10 min; SEC: 50 mM HEPES pH 7.0, 0.2, 1 or 3 M KCl; EMSA:; settings: protein: recombinant; tags: N-terminal 6xHis; label: 5' Cy5; single strand
HvRPA3-NTD (OB-fold) = molecular target: T4, HvRPA3-NTD (OB-fold); test: fluorescence anisotropy; 1 M KCl; two-site fit, high-affinity site; dimer concentration; FA: 50 mM HEPES pH 7.0, 10% glycerol, 0.03% BSA, 20 nM Cy5-oligo, 0.2, 1 or 3 M KCl, room temperature 10 min; SEC: 50 mM HEPES pH 7.0, 0.2, 1 or 3 M KCl; EMSA:; settings: protein: recombinant; tags: N-terminal 6xHis; label: 5' Cy5; single strand
HvRPA3 full length [7] = molecular target: T3, HvRPA3 full length; test: fluorescence anisotropy; 3 M KCl; Hill 1.2 ± 0.1; FA: 50 mM HEPES pH 7.0, 10% glycerol, 0.03% BSA, 20 nM Cy5-oligo, 0.2, 1 or 3 M KCl, room temperature 10 min; SEC: 50 mM HEPES pH 7.0, 0.2, 1 or 3 M KCl; EMSA:; settings: protein: recombinant; tags: N-terminal 6xHis; label: 5' Cy5; single strand
HvRPA3 CTD-1 [8] = molecular target: T1, HvRPA3 CTD-1; test: fluorescence anisotropy; any KCl condition; data not shown; FA: 50 mM HEPES pH 7.0, 10% glycerol, 0.03% BSA, 20 nM Cy5-oligo, 0.2, 1 or 3 M KCl, room temperature 10 min; SEC: 50 mM HEPES pH 7.0, 0.2, 1 or 3 M KCl; EMSA:; settings: protein: recombinant; tags: N-terminal 6xHis; chain copies: 4; label: 5' Cy5; single strand
HvRPA3 CTD-2 [9] = molecular target: T2, HvRPA3 CTD-2; test: as above; settings: protein: recombinant; tags: N-terminal 6xHis; label: 5' Cy5; single strand
[10] = molecular target: the molecule itself; test: SEC; last step of the purification, 26/60 Superdex 200, 50 mM Hepes pH 7.0, 1.0 M NaCl

Row | Binder | stoichiometry N [4] | stoichiometry N [5] | stoichiometry N [10] | further results
1 | GCGTGTGTGGTGGTGTGC (ssDNA) [18mer ssDNA (SEC)] |  |  |  | binding result (HvRPA3 CTD-1 [1]): no binding; binding result (HvRPA3 CTD-2 [2]): no binding
2 | B1 | 3 |  |  | stoichiometry N [3]: 2
3 | B2 | 4 | 2 |  | 
4 | GCGTGTGTGGTGGTGTGC (ssDNA) [Cy5-18mer ssDNA (FA)] |  |  |  | Kd (HvRPA3 full length [6]): 53.9 ± 18.3 nM; Kd (HvRPA3-NTD (OB-fold)): 4.1 ± 7.9 nM; Kd (HvRPA3 full length [7]): 24.1 ± 2.9 nM; binding result (HvRPA3 CTD-1 [8]): no binding; binding result (HvRPA3 CTD-2 [9]): no binding
5 | B3 | 3 |  | 2 | 
6 | B4 | 7 | 5 | 4 | 
